Numbering of substitutions follows the chain as printed.
Experiments:
[1] = molecular target: T1, human EphA4 extracellular region-SEAP-His protein (human, UniProt P54764 20-547); test: SPR, Ab captured
T1 construct: also called hEphA4-SEAP-His
Description: The binding affinity of each anti-EphA4 monoclonal humanized antibody obtained in Example 16 for human EphA4 was determined by surface plasmon resonance (SPR) using Biacore T200 (GE Healthcare). First, for the assay of antibody A, a rat anti-mouse IgG₁ antibody produced with a conventional method by immunizing rat with mouse IgG₁ antibody was immobilized on sensor chip CM5. The immobilization of the rat anti-mouse IgG1 antibody on sensor chip CM5 was performed by the amine coupling method using N-hydroxysuccinimide (NHS) and N-ethyl-N′-(3-dimethylaminopropyl)carbodiimide hydrochloride (EDC). Ethanolamine was used in blocking (the sensor chip and the reagents for immobilization were all manufactured by GE Healthcare). The antibody was diluted with a buffer solution for immobilization (10 mM sodium acetate, pH 4.5) and immobilized on the sensor chip according to the protocol attached to Biacore T200. For the assay of each humanized monoclonal antibody, a protein A chip (GE Healthcare, 29-1383-03) was used. Antibody A or the humanized monoclonal antibody was diluted with a running buffer solution HBS-EP (GE Healthcare), injected onto only flow cell 2 for 120 seconds, and captured (captured amount: approximately 30 to 60 RU). Subsequently, human EphA4 extracellular region-SEAP-His protein serially diluted in the range of 50, 16.7, 5.6, 1.9, and 0.6 nM using HBS-EP was sequentially added from the lower toward higher concentration sides without regeneration operation. Binding reaction curves were sequentially observed at the time of the addition (association phase, for 120 sec) and after the completion of the addition (dissociation phase, for 900 sec). After the completion of each observation, the sensor chip was regenerated by the addition of 3 M MgCl₂ (for 60 sec) or 10 mM Glycine-HCl pH 1.5 (for 30 sec). The obtained binding reaction curves were subjected to fitting analysis with 1:1 binding models using software BIA evaluation attached to the system to calculate the affinity (KD=kd/ka) for human EphA4 (Table 6).

[2] = molecular target: T1, human EphA4 extracellular …; test: competition ELISA, competitor human Ephrin A5-Fc
Description: Each anti-EphA4 monoclonal humanized antibody obtained in Example 16 was evaluated for its inhibitory activity against the binding between human EphA4 and its human ligand according to the following steps. Each well of a 96-well plate (Nunc) was coated with an anti-alkaline phosphatase antibody (Thermo Fisher Scientific). After incubation overnight at 4° C., each well was blocked with 1% BlockAce (DS Pharma Biomedical) at room temperature for 1 hour. After washing with 0.05% Tween 20/PBS (Thermo Fisher Scientific) three times, the human EphA4 extracellular region-SEAP-His protein obtained by the method of Example 2 was added (final concentration: 10 nM) to each well and incubated at room temperature for 1 hour. After washing three times, a ligand and each serially diluted humanized antibody of antibody A (0, 0.003, 0.01, 0.03, 0.1, 0.3, 1, 3, 10, 30, 100, 300, 1000, and 3000 nM) were added to each well. The ligand used was biotinylated human Ephrin A5-Fc chimera (R&D Systems, final concentration: 0.7 nM). After incubation at room temperature for 1 hour and subsequent washing three times, horseradish peroxidase-labeled streptavidin (GE Healthcare) was added thereto and incubated at room temperature for 1 hour. After washing three times, a TMBZ (3,3′,5,5′-tetramethylbenzidine, Sigma-Aldrich) solution was added to each well and incubated at room temperature for 2 minutes. An equal amount of a reaction stopping solution (1N H₂SO₄, Wako Pure Chemical Industries) was added to each well. The absorbance at 450 nm was read using a microplate reader (PerkinElmer).

T1 sequence (P54764 20-547): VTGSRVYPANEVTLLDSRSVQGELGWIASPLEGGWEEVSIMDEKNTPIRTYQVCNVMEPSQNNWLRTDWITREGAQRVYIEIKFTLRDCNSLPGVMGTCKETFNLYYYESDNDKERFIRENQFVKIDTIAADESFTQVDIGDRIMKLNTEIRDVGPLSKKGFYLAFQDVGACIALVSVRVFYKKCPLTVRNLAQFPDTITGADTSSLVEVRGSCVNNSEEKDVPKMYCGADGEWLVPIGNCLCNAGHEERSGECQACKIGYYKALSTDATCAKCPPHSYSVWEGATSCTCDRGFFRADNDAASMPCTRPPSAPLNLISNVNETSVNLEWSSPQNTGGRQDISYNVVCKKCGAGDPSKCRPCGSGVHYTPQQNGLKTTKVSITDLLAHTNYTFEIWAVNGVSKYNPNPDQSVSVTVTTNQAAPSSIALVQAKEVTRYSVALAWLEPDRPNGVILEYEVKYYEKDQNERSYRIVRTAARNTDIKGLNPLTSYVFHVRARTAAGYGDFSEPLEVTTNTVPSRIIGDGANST

B1: humanized antibody No. 86 (antibody, human IgG1, kappa)
heavy: QIQLVQSGSELKKPGASVKVSCKASGYTFTDYSMHWVRQAPGQGLKWMGWINTETGEPTYADDFKGRFVFSLDTSVSTAYLQISSLKAEDTAVYYCARIPLYYYGSRYWYFDVWGQGTTVTVSSASTKGPSVFPLAPSSKSTSGGTAALGCLVKDYFPEPVTVSWNSGALTSGVHTFPAVLQSSGLYSLSSVVTVPSSSLGTQTYICNVNHKPSNTKVDKRVEPKSCDKTHTCPPCPAPPAAAPSVFLFPPKPKDTLMISRTPEVTCVVVDVSHEDPEVQFNWYVDGVEVHNAKTKPREEQFNSTFRVVSVLTVVHQDWLNGKEYKCKVSNKGLPAPIEKTISKTKGQPREPQVYTLPPSREEMTKNQVSLTCLVKGFYPSDIAVEWESNGQPENNYKTTPPMLDSDGSFFLYSKLTVDKSRWQQGNVFSCSVMHEALHNHYTQKSLSLSPG
light: DIQMTQSPSSLSASVGDRVTITCRASENIYRNLAWYQQKPGKAPKLLLYAATNLADGVPSRFSGSGSGTDYTLTISSLQSEDFATYYCQHFWGTPWTFGQGTKVEIKRTVAAPSVFIFPPSDEQLKSGTASVVCLLNNFYPREAKVQWKVDNALQSGNSQESVTEQDSKDSTYSLSSTLTLSKADYEKHKVYACEVTHQGLSSPVTKSFNRGEC
notes: human Ig kappa; also called L1-5/HK4
Kd [1]: 1.5 nM | koff [1]: 0.00046 s⁻¹ | kon [1]: 310000 M⁻¹ s⁻¹ | IC50 [2]: 4 nM

B2: humanized antibody No. 140 (antibody, human IgG2)
heavy: QVQLVQSGSELKKPGASVKVSCKASGYTFTDYSMHWVRQAPGQGLKWMGWINTETGEPTYAQGFTGRFVFSLDTSVSTAYLQISSLKAEDTAVYYCARIPLYYYGSRYWYFDVWGQGTTVTVSSASTKGPSVFPLAPSSRSTSESTAALGCLVKDYFPEPVTVSWNSGALTSGVHTFPAVLQSSGLYSLSSVVTVPSSNFGTQTYTCNVDHKPSNTKVDKTVERKSCVECPPCPAPPAAAPSVFLFPPKPKDTLMISRTPEVTCVVVDVSHEDPEVQFNWYVDGVEVHNAKTKPREEQFNSTFRVVSVLTVVHQDWLNGKEYKCKVSNKGLPAPIEKTISKTKGQPREPQVYTLPPSREEMTKNQVSLTCLVKGFYPSDIAVEWESNGQPENNYKTTPPMLDSDGSFFLYSKLTVDKSRWQQGNVFSCSVMHEALHNHYTQKSLSLSPG
light: B1 light with L48V, S80P
notes: human Ig kappa; also called L1-4/HA2
Kd [1]: 1.4 nM | koff [1]: 0.00043 s⁻¹ | kon [1]: 320000 M⁻¹ s⁻¹ | IC50 [2]: 2.4 nM

B3: humanized antibody No. 144 (antibody, human IgG2)
heavy: B2 heavy with K46E, Q62D, G63D, T65K
light: B1 light with K45Q, S80P
notes: human Ig kappa; also called L1-6/HK1
Kd [1]: 2 nM | koff [1]: 0.00078 s⁻¹ | kon [1]: 400000 M⁻¹ s⁻¹ | IC50 [2]: 3.6 nM

B4: humanized antibody No. 145 (antibody, human IgG2)
heavy: B2 heavy with Q62D, G63D, T65K
light: B1 light
notes: human Ig kappa; also called L1-5/HK2
Kd [1]: 2 nM | koff [1]: 0.00065 s⁻¹ | kon [1]: 330000 M⁻¹ s⁻¹ | IC50 [2]: 3.7 nM

B5: humanized antibody No. 155 (antibody, human IgG2)
heavy: B2 heavy with V2I, Q62D, G63D, T65K
light: B1 light
notes: as for B1
Kd [1]: 1.9 nM | koff [1]: 0.00064 s⁻¹ | kon [1]: 330000 M⁻¹ s⁻¹ | IC50 [2]: 2.4 nM

B6: humanized antibody No. 151 (antibody, human IgG2)
heavy: B2 heavy with V2I
light: B1 light
notes: human Ig kappa; also called L1-5/HA4
Kd [1]: 1.7 nM | koff [1]: 0.00053 s⁻¹ | kon [1]: 320000 M⁻¹ s⁻¹ | IC50 [2]: 2 nM

B7: humanized antibody No. 152 (antibody, human IgG2)
heavy: B2 heavy with K46E
light: B1 light
notes: human Ig kappa; also called L1-5/HA1
Kd [1]: 2 nM | koff [1]: 0.00082 s⁻¹ | kon [1]: 400000 M⁻¹ s⁻¹ | IC50 [2]: 2 nM

B8: humanized antibody No. 142 (antibody, human IgG2)
heavy: B2 heavy with Q62D, G63D, T65K
light: B1 light with L48V, S80P
notes: human Ig kappa; also called L1-4/HK2
Kd [1]: 1.5 nM | koff [1]: 0.0005 s⁻¹ | kon [1]: 340000 M⁻¹ s⁻¹ | IC50 [2]: 3.7 nM

B9: humanized antibody No. 89 (antibody, human IgG1, kappa)
heavy: B1 heavy with D62Q, D63G, K65T
light: B1 light with K45Q, S80P
notes: human Ig kappa; also called L1-6/HA4
Kd [1]: 1.3 nM | koff [1]: 0.00041 s⁻¹ | kon [1]: 310000 M⁻¹ s⁻¹ | IC50 [2]: 4.3 nM

B10: humanized antibody No. 141 (antibody, human IgG2)
heavy: B2 heavy with K46E, Q62D, G63D, T65K
light: B1 light with L48V, S80P
notes: human Ig kappa; also called L1-4/HK1
Kd [1]: 1.6 nM | koff [1]: 0.00062 s⁻¹ | kon [1]: 390000 M⁻¹ s⁻¹ | IC50 [2]: 3 nM

B11: humanized antibody No. 90 (antibody, human IgG1, kappa)
heavy: B1 heavy with I2V, K46E
light: B1 light with K45Q, S80P
notes: as for B3
Kd [1]: 1.5 nM | koff [1]: 0.00055 s⁻¹ | kon [1]: 360000 M⁻¹ s⁻¹ | IC50 [2]: 4.5 nM

From patent US20190077860A1 (EISAI R AND D MANAGEMENT, published 2019)
